Assays:
Test in all cases: SPR; ProteOn XPR36, HC30M chip; IgG captured at low density (about 50 to 100 RU) by anti-human IgG (Fc) antibody, trimer flowed as analyte, highest concentration 3 µM; 1x HBS-EP+ pH 7.4 with BSA 1 mg/ml
[1] = target: BG18 inferred germline IgG, Gly at the (D3-3)+2 position (human)
[2] = target: BG18 inferred germline IgG, Glu at the (D3-3)+2 position (human)
[3] = target: BG18 inferred germline IgG, Asp at the (D3-3)+2 position (human)
Sequence of BG18 inferred germline IgG, Asp at the (D3-3)+2 position (human) (heavy, as listed by the source, chain 1 of 2): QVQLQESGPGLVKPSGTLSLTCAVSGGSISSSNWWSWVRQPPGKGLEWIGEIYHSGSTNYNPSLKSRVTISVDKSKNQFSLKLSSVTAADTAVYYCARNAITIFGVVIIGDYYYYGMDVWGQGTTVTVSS
Sequence of BG18 inferred germline IgG, Asp at the (D3-3)+2 position (human) (light, as listed by the source, chain 2 of 2): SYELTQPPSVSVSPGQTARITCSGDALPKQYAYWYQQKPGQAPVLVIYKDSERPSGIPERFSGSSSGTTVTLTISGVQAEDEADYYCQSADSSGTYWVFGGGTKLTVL

Sequence of BG18 inferred germline IgG, Glu at the (D3-3)+2 position (human) (heavy, as listed by the source, chain 1 of 2): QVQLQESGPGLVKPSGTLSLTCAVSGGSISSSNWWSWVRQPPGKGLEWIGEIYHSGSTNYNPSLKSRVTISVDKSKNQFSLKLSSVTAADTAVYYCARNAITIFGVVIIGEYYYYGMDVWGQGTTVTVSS
Sequence of BG18 inferred germline IgG, Glu at the (D3-3)+2 position (human) (light, as listed by the source, chain 2 of 2): as the sequence (light, as listed by the source, chain 2 of 2) above
Sequence of BG18 inferred germline IgG, Gly at the (D3-3)+2 position (human) (heavy, as listed by the source, chain 1 of 2): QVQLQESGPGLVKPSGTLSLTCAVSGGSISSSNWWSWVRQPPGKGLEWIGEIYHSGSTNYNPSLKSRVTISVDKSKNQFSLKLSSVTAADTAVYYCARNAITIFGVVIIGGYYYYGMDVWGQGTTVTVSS
Sequence of BG18 inferred germline IgG, Gly at the (D3-3)+2 position (human) (light, as listed by the source, chain 2 of 2): as the sequence (light, as listed by the source, chain 2 of 2) above

In the case of “N332-GT5 trimer (BG505_MD65_congly_N332-GT5)”, the Kd [1] is reported as 1790 nM, the Kd [2] is reported as 0.7 nM and the Kd [3] is reported as 39 nM.
